{"source": "patent US20260234226A1", "about": "(IMAGINAB, published 2026)", "binders": {"B1": {"name": "IAB57M2-2 (other)", "chain": "QVQLVQSGAEVKKPGASVKVSCKASGYTFTNYGMNWVRQAPGQGLEWMGWINTYTGEPTYADDFKGRVTMTTDTSTSTAYMELRSLRSDDTAVYYCARIGDSSPSDYWGQGTLVTVSSGSTSGGGSGGGSGGGGSSEIVMTQSPATLSVSPGERATLSCKASQSVSNDVVWYQQKPGQAPRLLIYYASNRYTGIPARFSGSGSGTEFTLTISSLQSEDFAVYYCQQDYTSPWTFGQGTKLEIKEPKSSDKTHTCPPCPPCGGGSSGGGSGGQPREPQVYTLPPSREEMTKNQVSLTCLVKGFYPSDIAVEWESNGQPENNYKTTPPVLDSDGSFFLYSKLTVDKSRWQQGNVFSCSVMHEALHNHYTQKSLSLSPG", "notes": "Parental minibody; Signal peptide left out; also called parental minibody IAB57M2-2"}, "B2": {"name": "IAB57M2-4 (other)", "chain": "B1 chain with Y186D", "notes": "Signal peptide left out"}, "B3": {"name": "IAB57M2-8 (other)", "chain": "B1 chain with Y186D, Y191N", "notes": "Signal peptide left out"}, "B4": {"name": "IAB57M2-6 (other)", "chain": "B1 chain with Y191N", "notes": "Signal peptide left out"}, "B5": {"name": "IAB57M1-1 (other)", "chain": "EIVMTQSPATLSVSPGERATLSCKASQSVSNDVVWYQQKPGQAPRLLIYYASNRYTGIPARFSGSGSGTEFTLTISSLQSEDFAVYYCQQDYTSPWTFGQGTKLEIKGSTSGGGSGGGSGGGGSSQVQLVQSGAEVKKPGASVKVSCKASGYTFTNYGMNWVRQAPGQGLEWMGWINTYTGEPTYADDFKGRVTMTTDTSTSTAYMELRSLRSDDTAVYYCARIGDSSPSDYWGQGTLVTVSSEPKSSDKTHTCPPCPPCGGGSSGGGSGGQPREPQVYTLPPSREEMTKNQVSLTCLVKGFYPSDIAVEWESNGQPENNYKTTPPVLDSDGSFFLYSKLTVDKSRWQQGNVFSCSVMHEALHNHYTQKSLSLSPG", "notes": "Parental minibody; also called parental minibody IAB57M1-1"}, "B6": {"name": "IAB57M1-3 (other)", "chain": "B5 chain with Y50D", "notes": "Signal peptide left out"}, "B7": {"name": "IAB57M1-7 (other)", "chain": "B5 chain with Y50D, Y55N", "notes": "Signal peptide left out"}, "B8": {"name": "IAB57M1-5 (other)", "chain": "B5 chain with Y55N", "notes": "Signal peptide left out"}}, "note": "Residue numbers refer to the chain shown, from its start."}
{"molecular_target": "T1, purified human/cynomolgus/dog/mouse/rat or minipig DLL3 antigen (ELISA coat) (human/cynomolgus/dog/mouse/rat or …)", "T1 construct": "May be the same protein as the his-tagged antigen used for BLI", "T1 sequence (Q9NYJ7 whole entry)": "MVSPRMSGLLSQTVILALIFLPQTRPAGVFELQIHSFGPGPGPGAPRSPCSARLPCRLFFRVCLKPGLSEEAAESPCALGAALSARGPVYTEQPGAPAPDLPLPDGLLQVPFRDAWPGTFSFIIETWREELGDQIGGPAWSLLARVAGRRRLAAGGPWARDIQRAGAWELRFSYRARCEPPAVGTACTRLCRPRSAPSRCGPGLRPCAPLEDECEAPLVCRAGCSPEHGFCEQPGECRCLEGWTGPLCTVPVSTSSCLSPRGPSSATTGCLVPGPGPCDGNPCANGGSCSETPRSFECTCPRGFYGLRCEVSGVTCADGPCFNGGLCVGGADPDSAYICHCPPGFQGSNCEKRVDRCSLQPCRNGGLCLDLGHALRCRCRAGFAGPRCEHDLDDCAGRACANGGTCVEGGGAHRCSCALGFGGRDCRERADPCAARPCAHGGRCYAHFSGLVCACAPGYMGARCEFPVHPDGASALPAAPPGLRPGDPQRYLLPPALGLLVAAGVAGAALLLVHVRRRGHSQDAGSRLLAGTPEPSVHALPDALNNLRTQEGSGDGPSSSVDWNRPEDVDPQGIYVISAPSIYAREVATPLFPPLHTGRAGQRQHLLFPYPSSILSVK", "assay": "ELISA, plate coated with purified DLL3 antigen, HRP secondary (FIG. 8)", "experimental": "(§1) Binding affinity of the novel antigen binding constructs to a purified human/cynomolgus/dog/mouse/rat or minipig DLL3 antigen was assessed using ELISA. For this assay, a 96 well ELISA plate was coated with the DLL3 antigen diluted to a concentration of […] in coating buffer (0.05M sodium carbonate-bicarbonate buffer, pH 9.6). 100 μl of this coating solution was added to each well in the plate and incubate at 4° C. overnight. The plate was washed 3 times with 300 μl per well of washing buffer (PBS with 0.05% Tween-20). After the last wash, the plate was blocked by adding to each well 200 μl of blocking buffer (PBS with 1% BSA) warmed to room temperature. The plate was then incubated at room temperature for 1 hour under gentle agitation. After blocking, the plate was washed 3 times with 300 μl per well of washing buffer. Dilution samples for each minibody were created by making 2.5× dilutions from a starting sample at 100 ng/mL, or 250 ng/mL, or 1000 ng/mL or 3000 ng/mL in 100 μL sample buffer (PBS with 1% BSA). The dilution samples were transferred to the assay plate and incubated at room temperature for 1 hour under gentle agitation. The plate was then washed 3 times with 300 μl per well of washing buffer.\nDetection was performed by adding 100 μl of HRP labeled detection secondary antibody at an appropriate dilution and incubating the plate at room temperature for 1 hour under gentle agitation. The plate was then washed 3 times with 300 μl per well of washing buffer. For color development, 100 μl of TMB substrate regent, pre-warmed to room temperature, was added to the plate and incubated in the dark at room temperature for 15 min. The reaction was then stopped by adding 100 μl of 650 nm stop solution to the plate and mixed for 1 min at room temperature under gentle agitation. The plate is recorded by reading OD at 650 nm in a plate reader within 20 min after terminating the reaction.", "units": {"EC50": "pM"}}
{"binder": "B1", "EC50": 120}
{"binder": "B2", "EC50": 118}
{"binder": "B3", "EC50": 123}
{"binder": "B4", "EC50": 161}
{"binder": "B5", "EC50": 94.6}
{"binder": "B6", "EC50": 109}
{"binder": "B7", "EC50": 111}
{"binder": "B8", "EC50": 125}
{"molecular_target": "T2, his-tagged-DLL3 antigen (purified human/cynomolgus/dog/mouse/rat or minipig DLL3 antigen) (human/cynomolgus/dog/mouse/rat or …)", "T2 construct": "Antigen loaded on nickel-NTA tips for biolayer interferometry; also called Delta-like protein 3", "T2 sequence (Q9NYJ7 whole entry)": "as above", "assay": "biolayer interferometry (Octet BLItz), his-tagged DLL3 on nickel-NTA tip, minibody in solution", "experimental": "(§2) As disclosed herein, the binding kinetics of the novel antigen binding constructs to a purified human/cynomolgus/dog/mouse/rat or minipig DLL3 antigen was assessed using biolayer interferometry (TABLE 9) (FIG. 9). The his-tagged-DLL3 antigen was diluted in phosphate buffer saline (PBS) at 10 μg/mL and loaded on a nickel-NTA tip until saturation. The on-rate (Kon) and off-rate (Koff), and the dissociation constant KD, where recorded on Octet BLItz instrument. Dilution samples of the antigen binding construct were prepared in PBS at concentrations between 100 nM and 0.1 nM, by 2.5× dilutions and binding curves recorded at each concentration. Off-rate curves were recorded by immersion of the tip in PBS.", "units": {"Kd": "pM", "koff": "s⁻¹", "kon": "M⁻¹ s⁻¹"}}
{"binder": "B1", "Kd": 3070, "koff": 0.00214, "kon": 698000}
{"binder": "B2", "Kd": 4840, "koff": 0.00281, "kon": 581000}
{"binder": "B4", "Kd": "< 1", "koff": "< 1e-07", "kon": 785000}
{"binder": "B5", "Kd": 3330, "koff": 0.00279, "kon": 838000}
{"binder": "B6", "Kd": 4000, "koff": 0.00239, "kon": 599000}
{"molecular_target": "T3, DLL3 on tumor cells of the SHP-77 and NCI-H82 cell lines (UniProt Q9NYJ7 27-618, limits assumed)", "T3 construct": "whole, on cells; also called cellular targets", "T3 sequence (looked up)": "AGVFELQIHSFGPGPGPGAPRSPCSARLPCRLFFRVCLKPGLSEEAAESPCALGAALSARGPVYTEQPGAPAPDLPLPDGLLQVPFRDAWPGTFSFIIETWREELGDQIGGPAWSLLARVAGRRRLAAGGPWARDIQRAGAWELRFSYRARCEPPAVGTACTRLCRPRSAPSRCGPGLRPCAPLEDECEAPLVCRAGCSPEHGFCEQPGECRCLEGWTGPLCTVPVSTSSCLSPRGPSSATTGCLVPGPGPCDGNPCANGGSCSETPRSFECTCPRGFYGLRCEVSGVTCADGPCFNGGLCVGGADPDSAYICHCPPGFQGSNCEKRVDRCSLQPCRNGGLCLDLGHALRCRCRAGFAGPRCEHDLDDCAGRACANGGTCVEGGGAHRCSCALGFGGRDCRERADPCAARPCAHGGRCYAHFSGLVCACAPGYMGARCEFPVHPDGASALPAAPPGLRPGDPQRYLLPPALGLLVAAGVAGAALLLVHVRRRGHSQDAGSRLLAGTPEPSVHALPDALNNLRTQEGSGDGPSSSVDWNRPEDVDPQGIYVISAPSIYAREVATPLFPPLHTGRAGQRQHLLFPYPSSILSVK", "assay": "flow cytometry on SHP-77 tumor cells, mean fluorescence; the legend gives no unit, nM is from the axis '[Minibody],nM'", "experimental": "(§3) As disclosed herein, the binding of constructs to cellular targets was assessed using flow cytometry. Stock of 2.5× serial dilution of minibodies were created starting from a concentration of 100 nM in 180 μl FACS buffer (PBS 2% FBS). Cells were added to a Corning V-bottom polypropylene cell culture plate at 200,000 cells/well. The cells were centrifuged at 100 rpm for 3 minutes and the supernatant discarded. The minibody dilution series were transferred to the plate containing cell pellets and incubated for 1 hr at 4° C. The plate was then washed 3 times with FACS buffer at 200 μl/well, discarding supernatant after each wash by centrifugation at 1000 rpm. 50 μl/well of detection antibody R&D AlexaFluor-647 Goat anti Human (H+L) was added at a 1:100 dilution in FACS buffer and incubated at 4° C. 1 hr. The plate was washed 3 times with FACS buffer at 200 μl/well, discarding supernatant after each wash by centrifuging at 1000 rpm. Cells were then fixed by adding 100 μl of 1% paraformaldehyde in PBS and incubating at room temperature for 15 minutes. 100 μl of PBS were added to each well and the plate was analyzed by flow cytometry using the allophycocyanin fluorescence setting.", "units": {"EC50": "pM"}}
{"binder": "B4", "EC50": 14}
{"binder": "B6", "EC50": 10}
{"molecular_target": "T3, DLL3 on tumor cells of the SHP-77 and …", "assay": "flow cytometry on NCI-H82 tumor cells, mean fluorescence; the legend gives no unit, nM is from the axis '[Minibody],nM'", "experimental": "as §3", "units": {"EC50": "pM"}}
{"binder": "B4", "EC50": 63}
{"binder": "B6", "EC50": 40}
{"molecular_target": "T1, purified human/cynomolgus/dog/mouse/rat …", "assay": "ELISA on plate-coated recombinant DLL3 antigen, A650 readout, panel with IAB57M1-7, IAB57M2-8, IAB57M1-3 and IAB57M2-6", "experimental": "as §1, with “The dilution samples were transferred to the assay plate and incubated at room temperature for 1 hour under gentle agitation. The plate was then washed 3 times with 300 μl per well of washing buffer.” left out\n(§4) Detection was performed by adding 100 μl of HRP labeled detection secondary antibody at an appropriate dilution and incubating the plate at room temperature for 1 hour under gentle agitation. […] The plate is recorded by reading OD at 650 nm in a plate reader within 20 min after terminating the reaction.", "units": {"EC50 (read off the curve)": "pM"}}
{"binder": "B6", "EC50 (read off the curve)": "~100"}
{"molecular_target": "T2, his-tagged-DLL3 antigen (purified …)", "assay": "biolayer interferometry, his-tagged DLL3 on a Ni-NTA tip, minibody at 100 nM; the table gives no unit, nm is from the axis 'Binding (nm)'", "experimental": "as §2", "units": {"R equilibrium": "nm"}}
{"binder": "B1", "R equilibrium": 0.876}
{"binder": "B2", "R equilibrium": 0.911}
{"binder": "B6", "R equilibrium": 1.04}
{"molecular_target": "T1, purified human/cynomolgus/dog/mouse/rat …", "assay": "ELISA on plate-coated recombinant DLL3 antigen, A650 readout, left panel 'DLL3 ELISA'; the table gives no unit, nM is from the axis 'Antibody Concentration (nM)'", "experimental": "as §1, with “The dilution samples were transferred to the assay plate and incubated at room temperature for 1 hour under gentle agitation. The plate was then washed 3 times with 300 μl per well of washing buffer.” left out\nas §4", "units": {"EC50": "pM"}}
{"binder": "B1", "EC50": 132}
{"binder": "B5", "EC50": 115}
{"molecular_target": "T1, purified human/cynomolgus/dog/mouse/rat …", "assay": "ELISA on plate-coated recombinant DLL3 antigen, A650 readout, panel with IAB57M1-7, IAB57M2-8, IAB57M1-3 and IAB57M2-6; the table gives no unit, nM is from the axis 'Antibody Concentration (nM)'", "experimental": "as §1, with “The dilution samples were transferred to the assay plate and incubated at room temperature for 1 hour under gentle agitation. The plate was then washed 3 times with 300 μl per well of washing buffer.” left out\nas §4", "units": {"EC50": "pM"}}
{"binder": "B4", "EC50": 157}
